Biological target: T1, STAT1_(1–683), truncated, unphosphorylated human STAT1 (human, UniProt P42224 1-683)
T1 construct: also called unphosphorylated STAT1_(1–683); not shown: HA, C-terminal, kept
T1 sequence (looked up): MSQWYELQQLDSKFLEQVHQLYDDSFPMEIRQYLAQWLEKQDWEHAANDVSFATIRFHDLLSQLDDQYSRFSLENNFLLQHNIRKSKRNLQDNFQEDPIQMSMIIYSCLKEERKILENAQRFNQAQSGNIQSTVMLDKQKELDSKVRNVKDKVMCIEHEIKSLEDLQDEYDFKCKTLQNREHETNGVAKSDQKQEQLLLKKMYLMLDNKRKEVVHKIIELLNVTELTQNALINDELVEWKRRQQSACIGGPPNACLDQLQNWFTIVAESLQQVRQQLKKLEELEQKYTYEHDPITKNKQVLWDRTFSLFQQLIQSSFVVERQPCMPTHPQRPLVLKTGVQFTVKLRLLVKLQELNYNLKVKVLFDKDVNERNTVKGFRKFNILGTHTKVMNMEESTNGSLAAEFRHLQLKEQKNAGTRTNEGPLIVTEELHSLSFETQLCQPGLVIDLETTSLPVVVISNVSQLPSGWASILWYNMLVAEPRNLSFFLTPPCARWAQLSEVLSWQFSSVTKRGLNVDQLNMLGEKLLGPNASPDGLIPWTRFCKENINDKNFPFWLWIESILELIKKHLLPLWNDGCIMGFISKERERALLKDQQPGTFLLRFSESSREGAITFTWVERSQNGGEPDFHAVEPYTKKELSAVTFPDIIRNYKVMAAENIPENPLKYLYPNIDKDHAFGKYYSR
Experiment: ELISA
Conditions: both partners purified

B1: Ebola virus (Zaire) VP24 residues 1-233 (EBOV_(1–233)) (domain or fragment)
chain: MAKATGRYNLISPKKDLEKGVVLSDLCNFLVSQTIQGWKVYWAGIEFDVTHKGMALLHRLKTNDFAPAWSMTRNLFPHLFQNPNSTIESPLWALRVILAAGIQDQLIDQSLIEPLAGALGLISDWLLTTNTNHFNMRTQRVKEQLSLKMLSLIRSNILKFINKLDALHVVNYNGLLSSIEIGTQNHTIIITRTNMGFLVELQEPDKSAMNRMKPGPAKFSLLHESTLKAFTQG
binding result: binds
